Assay results: publication PMC11203719, “Mts1 (S100A4) and Its Peptide Demonstrate Cytotoxic Activity in Complex with Tag7 (PGLYRP1) Peptide” (International Journal of Molecular Sciences, 2024)

Target: T1, Tag7 (PGLYRP1) protein, recombinant (UniProt O88593)
T1 sequence (O88593 1-182, species assumed, looked up): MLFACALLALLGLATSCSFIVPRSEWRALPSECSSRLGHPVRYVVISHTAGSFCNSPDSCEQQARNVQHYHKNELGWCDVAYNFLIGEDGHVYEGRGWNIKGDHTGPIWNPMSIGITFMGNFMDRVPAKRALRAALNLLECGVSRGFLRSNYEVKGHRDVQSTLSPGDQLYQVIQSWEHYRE
Assay: MST; Tag7 labelled with Alexa Fluor 488 (200 nM), preincubated 20 min in the dark at room temperature with 16 concentrations of M7; Monolith NT.115, 10% IR laser power

B1: M7 peptide of Mts1 (S100A4) (peptide)
peptide: ELPSFLGKRTDEAAFQK
Kd: 2.96 nM
